Reference: patent publication US20130078247A1 (Boehringer Ingelheim, published 2013)
Substitutions are numbered along the chain they refer to.

T1: human DLL1 (human, UniProt O00548 18-545, limits assumed)
T1 construct: also called hDLL1; rhDLL1
T1 sequence (looked up): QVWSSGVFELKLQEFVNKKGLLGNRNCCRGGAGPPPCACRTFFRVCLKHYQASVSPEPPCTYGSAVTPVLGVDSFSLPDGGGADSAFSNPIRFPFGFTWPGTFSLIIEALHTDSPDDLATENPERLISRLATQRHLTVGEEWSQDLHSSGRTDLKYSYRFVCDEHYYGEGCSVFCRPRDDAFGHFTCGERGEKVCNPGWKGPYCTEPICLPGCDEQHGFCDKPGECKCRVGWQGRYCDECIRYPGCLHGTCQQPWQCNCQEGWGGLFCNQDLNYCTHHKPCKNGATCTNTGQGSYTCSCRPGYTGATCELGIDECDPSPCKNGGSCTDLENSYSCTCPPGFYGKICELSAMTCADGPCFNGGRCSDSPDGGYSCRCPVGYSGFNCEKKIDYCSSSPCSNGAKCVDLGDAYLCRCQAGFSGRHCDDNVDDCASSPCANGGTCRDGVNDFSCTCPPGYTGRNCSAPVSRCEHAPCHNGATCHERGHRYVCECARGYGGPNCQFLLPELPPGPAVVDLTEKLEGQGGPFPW

B1: DLLBII129H02 (VHH)
VHH: EVQLVESGGGLVQAGGSLRLSCAASGRTFSSYAMAWYRQAPGKEREYVAAIRWSGGTAYYADSVQGRFTISRDNAKNTVYLQMNSLKPEDTAVYYCANRAPDTRLRPYEYDYWGQGTQVTVSS
B2: DLLBII129H04 (VHH)
VHH: B1 VHH with G8R, Y37F, R106E, E109L, Y112H
B3: DLLBII129H05 (VHH)
VHH: B1 VHH with Q39L, R106G, E109L
B4: DLLBII129H07 (VHH)
VHH: B1 VHH with R106E
notes: not shown: C-terminal c-myc tag and (His)6 tag
B5: DLLBII130A05 (VHH)
VHH: B1 VHH with R106G, E109L, Y112H
B6: DLLBII130B02 (VHH)
VHH: B1 VHH with Y37F, N84Y, R106A, E109L, Y112H
B7: DLLBII130B03 (VHH)
VHH: B1 VHH with R106A, E109L
notes: as for B4
B8: DLLBII130B04 (VHH)
VHH: B1 VHH with Y37F, E109L, Y112H
B9: DLLBII130D06 (VHH)
VHH: B1 VHH with A23S, G56E, R106E, E109L, Y112H
B10: DLLBII130E03 (VHH)
VHH: B1 VHH with R106E, Y112H
B11: DLLBII130F06 (VHH)
VHH: B1 VHH with R106A
notes: as for B4
B12: DLLBII015 (VHH)
VHH: EVQLVESGGGLVQPGGSLRLSCAASGFTIGSYDMSWVRRSPGKGPEWVSAINSGGGSTYYADYVKGRFTISRDNAKNTLYLQMNSLKPEDTAVYYCAADRYIWARQGEYWGAYAYDYWGQGTQVTVSS
notes: as for B4
B13: DLLBII133G05 (VHH)
VHH: B12 VHH with I29F, A61T
notes: as for B4
B14: DLLBII136C07 (VHH)
VHH: B12 VHH with I29F, A50S, A114E
notes: as for B4
B15: DLLBII8A09 (VHH)
VHH: EVQLVESGGGLVQPGGSLRLSCAASGFTLDYYNIGWFRQAPGKEREWVSCINSSDGSTYYADSVKGRFTISRDNAKNTVYLQMNSLKPEDTAVYYCAAPFAYYSNLCGVNGYDYWGQGTQVTVSS
notes: also called DLLBII08A09; not shown: C-terminal c-myc and His6 tags
B16: DLLBII5B11 (VHH)
VHH: EVQLVESGGGLVQPGGSLRLSCAISGFTLDLHVIGWLRQAPGKEREWVSCISSSDGSTYYADSVKGRFTISRDNAKNTVYLQMNSLKPEDTAVYYCAAPWDSWYCGIGNDYDYWGQGTQVTVSS
notes: also called DLLBII05B11; not shown: C-terminal c-myc and His6 tags
B17: DLLBII7B05 (VHH)
VHH: EVQLVESGGGLVQAGGSLRLSCAASGFALDYYAVGWFRQAPGKEREGVSCISSRGGSTFYADSVKGRFTTSRNNAKNTVYLQMNSLKPEDTAVYYCAAHPLQNCCGGSAYASPEAVYEYWGQGTQVTVSS
notes: also called DLLBII7B5; DLLBII07B05; not shown: C-terminal c-myc and His6 tags
B18: DLLBII6B11 (VHH)
VHH: EVQLVESEGGLVQAGGSLRLSCAASGSTFSSYAMGWYRQAPGKQRELVAVISNGGITNYPNSVKGRFTISRDNAKNTVYLQMNSLKPEDTAVYYCFYSGSYYYPTDVHEYDYWGQGTQVTVSS
notes: also called DLLBII06B11; not shown: C-terminal c-myc and His6 tags
B19: DLLBII8C11 (VHH)
VHH: EVQLVESGGGLVQAGGSLRLSCAASGFTFDDYAIGWFRQAPGKEREGVSCISSHDRTTYYADSVKGRFTISSDNAKNTVYLQMNSLKPEDTAVYYCAADPLVCGYNDPRLADYWGQGTQVTVSS
notes: also called DLLBII08C11; not shown: C-terminal c-myc and His6 tags
B20: DLLBII33C05 (VHH)
VHH: EVQLVESGGGLVQAGGSLRLSCAASGFTLDNYVIGWFRQAPGKEREEVSCISSSGGSTDYLDSVKGRFTISRDNAKNTVYLQMNSLKPEDTAVYYCAADSLPCYYDKMVYDYWGQGTQVTVSS
notes: also called DLLBII33C5; not shown: C-terminal c-myc and His6 tags
B21: DLLBII28B06 (VHH)
VHH: EVQLVESGGGLVQAGGSLRLSCAASGSTFSTYAMGWYRQDPGNQRELVAAISSDGSTHYADSVKGRFTISRDNAKNTVYLQMNSLKPEDTAVYYCYAPVKVAGLEYDYWGQGTQVTVSS
notes: also called DLLBII28B6; not shown: C-terminal c-myc and His6 tags
B22: DLLBII19F04 (VHH)
VHH: EVQLVESGGGLVQAEGSLRLSCAASGSTFSTYAMAWYRQAPGKQRELVAGISFDGSTHYAESVKGRFTISRDDAKNTVSLQMNSLKPEDAAVYYCYSVHPSTGFGSWGQGTQVTVSS
notes: also called DLLBII19F4; not shown: C-terminal c-myc and His6 tags
B23: DLLBII17B03 (VHH)
VHH: EVQLVESGGGLVQPGGSLRLSCAASGFTFENYALGWFRQAPGKEREWVSCISSSDGTTYYADSVKGRFTISRDNVKNTVYLQMNRLKPEDTAIYYCALSLGSSWCAYDYWGQGTQVTVSS
notes: also called DLLBII17B3; not shown: C-terminal c-myc and His6 tags
B24: DLLBII19F12 (VHH)
VHH: EVQLVESGGGLVQAGGSLRLSCTASGSTFTSYAMGWYRQAPGKQRELVAAISSDDSTYYADCVKGRFTISRDNAKNTVYLQMNSLKPEDTAVYYCNAPHSDYDEEAPSDFGSWGQGTQVTVSS
notes: not shown: C-terminal c-myc and His6 tags
B25: DLLBII133A09 (VHH)
VHH: B12 VHH with I29F
notes: as for B4

How the values were obtained:
recombinant human DLL4 = biological target: T2, recombinant human DLL4 (human, UniProt Q9NR61 25-522); experiment: ProteOn off-rate screen, periplasmic extract, hDLL4 on chip
T2 construct: R&D Systems C-terminally His-tagged extracellular domain; also called rhDLL4; hDLL4; not shown: C-terminal His tag
T2 sequence (Q9NR61 25-522): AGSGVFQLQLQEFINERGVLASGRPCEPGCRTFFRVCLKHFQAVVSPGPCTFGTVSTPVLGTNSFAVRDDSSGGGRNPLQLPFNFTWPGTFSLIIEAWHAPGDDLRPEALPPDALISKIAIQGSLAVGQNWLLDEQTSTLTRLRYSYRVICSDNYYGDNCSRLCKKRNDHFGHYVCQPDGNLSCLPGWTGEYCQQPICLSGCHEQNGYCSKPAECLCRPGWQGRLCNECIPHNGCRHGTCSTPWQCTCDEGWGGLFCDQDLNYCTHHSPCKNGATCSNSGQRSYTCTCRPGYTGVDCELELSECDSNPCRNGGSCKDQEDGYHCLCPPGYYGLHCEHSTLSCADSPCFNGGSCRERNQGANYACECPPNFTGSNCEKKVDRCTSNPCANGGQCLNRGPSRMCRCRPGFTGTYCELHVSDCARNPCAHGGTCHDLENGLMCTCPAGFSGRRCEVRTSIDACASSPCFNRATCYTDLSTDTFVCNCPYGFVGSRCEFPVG
Method: (§1) In a first cycle, amino acid substitutions are introduced randomly in both framework (FW) and complementary determining regions (CDR) using the error-prone PCR method. […] After a polish step, PCR products are inserted via unique restriction sites into a vector designed to facilitate phage display of the VHH library. […] No selections on murine DLL4 are included as (conservation of) cross-reactivity is assessed at the screening level. Individual mutants are produced as recombinant protein using an expression vector derived from pUC119, which contains the LacZ promoter, a resistance gene for ampicillin, a multiple cloning site and an ompA leader sequence (pAX50). E. coli TG1 cells are transformed with the expression vector library and plated on agar plates (LB+Amp+2% glucose). Single colonies are picked from the agar plates and grown in 1 mL 96-deep-well plates. VHH expression is induced by adding IPTG (1 mM). Periplasmic extracts (in a volume of ˜80 uL) are prepared according to standard methods and screened for binding to recombinant human and mouse DII4 in a ProteOn (BioRad, Hercules, Calif., USA) off-rate assay. […] Periplasmic extract of affinity matured clones is diluted 1/10 and injected across the “analyte channels” A1-A6. An average off-rate is calculated of the wild type clones present in the plate and served as a reference to calculate off-rate improvements.

recombinant mouse DLL4 = biological target: T3, recombinant mouse DLL4 (mouse, UniProt Q9JI71 27-532); experiment: ProteOn off-rate screen, periplasmic extract, mDLL4 on chip
T3 construct: extracellular domain; also called rmDLL4; mDLL4; not shown: C-terminal His tag
T3 sequence (Q9JI71 27-532): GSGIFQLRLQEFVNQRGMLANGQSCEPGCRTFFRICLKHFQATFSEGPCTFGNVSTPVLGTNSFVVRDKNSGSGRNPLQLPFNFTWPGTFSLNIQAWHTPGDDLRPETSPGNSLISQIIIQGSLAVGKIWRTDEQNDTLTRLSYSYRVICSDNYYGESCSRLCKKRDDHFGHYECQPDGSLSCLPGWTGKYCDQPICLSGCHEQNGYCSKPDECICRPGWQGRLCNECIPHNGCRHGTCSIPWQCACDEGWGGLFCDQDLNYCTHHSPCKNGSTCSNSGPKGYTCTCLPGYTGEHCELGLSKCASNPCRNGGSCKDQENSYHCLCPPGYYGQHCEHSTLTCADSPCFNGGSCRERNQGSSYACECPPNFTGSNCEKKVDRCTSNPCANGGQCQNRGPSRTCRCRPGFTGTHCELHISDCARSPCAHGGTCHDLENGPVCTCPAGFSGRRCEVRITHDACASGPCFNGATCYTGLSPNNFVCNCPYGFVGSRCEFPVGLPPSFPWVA
Method: as §1

human DLL1 = biological target: T1, human DLL1; experiment: binding ELISA, coated hDLL1
Method: (§2) Absence of binding to homologous ligands human DLL1 and human Jagged-1 is assessed via solid phase binding assay (ELISA). In brief, human DLL1 (Alexis, San Diego, Calif., USA) and human Jagged-1 (Alexis, San Diego, Calif., USA) are coated overnight at 4° C. at 1 μg/mL in a 96-well MaxiSorp plate (Nunc, Wiesbaden, Germany). Wells are blocked with a casein solution (1% in PBS). VHHs are applied as dilution series and binding is detected using a mouse anti-myc (Roche) and an anti-mouse-AP conjugate (Sigma, St. Louis, Mo., USA).

human Jagged-1 = biological target: T4, human Jagged-1 (human, UniProt P78504 34-1067, limits assumed); experiment: binding ELISA, coated hJagged-1
T4 construct: also called hJag-1; hJAG1
Method: as §2

[1] = biological target: T5, recombinant human DLL4 extracellular domain, C-terminally His-tagged (R&D Systems) (human, UniProt Q9NR61 25-522, biotinylated in the competition assays (sites not given)); experiment: periplasmic extract; hDLL4 ELISA
T5 construct: also called rhDLL4; hDLL4; not shown: C-terminal His tag
T5 sequence (Q9NR61 25-522): as the sequence (Q9NR61 25-522) above

[2] = biological target: T5, recombinant human DLL4 extracellular …; experiment: periplasmic extract; hDLL4/hNotch1 AlphaScreen
Method: To this mixture, the acceptor beads and the streptavidin donor beads are added and further incubated for 1 hour at room temperature. Fluorescence is measured by reading plates on the Envision Multilabel Plate reader (Perkin Elmer, Waltham, Mass., USA) using an excitation wavelength of 680 nm and an emission wavelength of 520 nm.

Binder	fold (off-rate improvement over DLLBII101G08) (recombinant human DLL4) [fold]	fold (off-rate improvement over DLLBII101G08) (recombinant mouse DLL4) [fold]	% inhibition [1] [%]	also measured
B1	23	19	–	–
B2	33	27	–	–
B3	24	19	–	–
B4	30	27	–	–
B5	24	17	–	–
B6	23	17	–	–
B7	27	20	–	–
B8	22	17	–	–
B9	26	16	–	–
B10	24	18	–	–
B11	27	19	–	–
B12	–	–	–	binding result (human DLL1): no binding; binding result (human Jagged-1): no binding
B13	–	–	–	binding result (human DLL1): no binding; binding result (human Jagged-1): no binding
B14	–	–	–	binding result (human DLL1): no binding; binding result (human Jagged-1): no binding
B15	–	–	96	–
B16	–	–	98	–
B17	–	–	84	–
B18	–	–	98	–
B19	–	–	57	–
B20	–	–	86	% inhibition [2]: 75%
B21	–	–	23	% inhibition [2]: 54%
B22	–	–	98	% inhibition [2]: 95%
B23	–	–	76	% inhibition [2]: 77%
B24	–	–	98	% inhibition [2]: 98%
B25	–	–	–	binding result (human DLL1): no binding; binding result (human Jagged-1): no binding
